The record followed here is publication PMC3328432, “Molecular Requirements for Peroxisomal Targeting of Alanine-Glyoxylate Aminotransferase as an Essential Determinant in Primary Hyperoxaluria Type 1” (PLoS Biology, 2012).

One may read the stoichiometry N as a count of units in the complex or per binding partner.

The assay deals with AGT of all performed ITC measurements (wild type and AGT mutants of Table S1). Description: ITC; 25–46 µM AGT as sample in the cell, 250–460 µM Pex5p(C) as titration ligand, 27 injections of 10 µl; 25°C; 100 mM HEPES pH 7.5, 150 mM NaCl, 2 mM ß-mercaptoethanol. A general note: In ITC the heat of successive injections is recorded.

“C-terminal cargo-binding segment of human Pex5p (residues 315-639) (from UniProt P50542 315-639) (domain or fragment)” returned a stoichiometry N of 1.02.
